Experimental findings from US20200024330A1 are described below.

For orientation: IC50 means the concentration that gives 50% inhibition. A low value points to greater potency.

Holding throughout (assay): cell-based or functional assay
The target of experiment [1] is HIV-1 Env of isolate MGRM-C-025 (HIV-1).
Experiment [2] deals with HIV-1 Env of isolate MGRM-F1-012 (subtype F), on pseudovirus (HIV-1).
For experiment [3], the target named is HIV-1 Env of isolate 92WR020 (HIV-1).
Experiment [4] addresses HIV-1 Env of isolate MGRM-C-010 (HIV-1).
Experiment [5] has as its target HIV-1 Env of isolate MGRM-D-011 (HIV-1).
Experiment [6] has as its target HIV-1 Env of isolate MGRM-C-028 (HIV-1).
The target in experiment [7] is HIV-1 Env of isolate MGRM-D-013 (HIV-1).
The target in experiment [8] is HIV-1 Env of isolate MGRM-F1-004 (subtype F), on pseudovirus (HIV-1).
Experiment [9] has as its target HIV-1 Env of isolate MGRM-G-024 (HIV-1).
The target in experiment [10] is HIV-1 Env of isolate MGRM-C-023 (HIV-1).
Experiment [11] deals with HIV-1 Env of isolate MGRM-D-008 (HIV-1).
The target of experiment [12] is HIV-1 Env of isolate 92UG024 (HIV-1).
Experiment [13] addresses HIV-1 Env of isolate MGRM-D-022 (HIV-1).
The target of experiment [14] is HIV-1 Env of isolate MGRM-D-004 (HIV-1).
In experiment [15] the target is HIV-1 Env of isolate MGRM-AG-002 (CRF_AG), on pseudovirus (HIV-1).
The target of experiment [16] is HIV-1 JR-CSF Env L125A (HIV-1 (isolate JR-CSF)) (UniProt P20871).
The target in experiment [17] is HIV-1 Env of isolate MGRM-C-017 (HIV-1).
In experiment [18] the target is HIV-1 92UG005 envelope glycoprotein (Env) on pseudovirus (HIV-1).
Experiment [19] has as its target HIV-1 Env of isolate 92UG024 (clade D) (HIV-1).
Experiment [20] addresses HIV-1 JRCSF envelope glycoprotein (Env) on pseudovirus (HIV-1) (UniProt P20871).
Experiment [21] addresses HIV-1 Env of isolate MGRM-D-018 (clade D) (HIV-1).
Experiment [22] deals with HIV-1 APV6 envelope glycoprotein (Env) on pseudovirus (HIV-1).

For 5136_H01 (PGT-131) (antibody), the IC50 is more than 50 µg/mL in [1]; more than 50 µg/mL in [4]; 0.756 µg/mL in experiment [5]; more than 50 µg/mL in [6]; 4.14 µg/mL in experiment [7]; 0.143 µg/mL in experiment [10]. Also, the IC50 in [11] is more than 50 µg/mL; in [12] it was more than 50 µg/mL; in experiment [13], more than 50 µg/mL; in experiment [14], 2.01 µg/mL; in experiment [17], more than 50 µg/mL. The IC50, pseudovirus neutralization in experiment [2] is more than 50 µg/mL; in [8] it was 0.114 µg/mL; in experiment [9] it was 10.7 µg/mL. The neutralization IC50 in [3] was found to be 0.168 µg/mL. In experiment [15], this substance registered an IC50, single-round pseudovirus neutralization of more than 50 µg/mL. In addition, in experiment [16], the Fold IC50 increase relative to wild-type stood at 2.5 fold.
Take 5147_N06 (PGT-130) (antibody): the IC50 in [1] was more than 50 µg/mL; in [4] it was more than 50 µg/mL; in [5], 0.019 µg/mL; in experiment [6] it was more than 50 µg/mL; in experiment [7] it was 0.429 µg/mL; in [10] it was 0.151 µg/mL. The IC50 in experiment [11] is more than 50 µg/mL; in experiment [12], more than 50 µg/mL; in experiment [13] it was more than 50 µg/mL; in [14], 1.21 µg/mL; in experiment [17] it was more than 50 µg/mL. The IC50, pseudovirus neutralization in experiment [2] is more than 50 µg/mL; in experiment [8], 0.023 µg/mL; in [9], 5.84 µg/mL. The neutralization IC50 in experiment [3] is 0.039 µg/mL; in experiment [19], more than 10 µg/mL; in [21] it was 0.0378 µg/mL. Moreover, the results for the IC50 (ug/ml), neutralizing activity in [18], in experiment [20] and in experiment [22] were 0.474 µg/mL, 0.0089 µg/mL and more than 10 µg/mL, respectively. Also, the neutralization IC80 is more than 10 µg/mL in experiment [19] and 0.289 µg/mL in experiment [21]. Moreover, the results for the neutralization IC90 in experiment [19] and in experiment [21] were more than 10 µg/mL and 2.31 µg/mL, respectively. Moreover, the neutralization IC95 in [19] and in experiment [21] was more than 10 µg/mL in each case. The same substance yielded an IC50, single-round pseudovirus neutralization in [15] of more than 50 µg/mL. This substance had a Fold IC50 increase relative to wild-type in [16] of 2.5 fold.
Take 5343_B08 (PGT-135) (antibody): the concentration for half-maximal inhibition (IC50) is more than 50 µg/mL in experiment [1]; more than 50 µg/mL in experiment [4]; 23.5 µg/mL in [5]; 1.47 µg/mL in experiment [6]; more than 50 µg/mL in experiment [7]; 0.051 µg/mL in experiment [10]. Besides, the IC50 was more than 50 µg/mL in [11]; 0.01 µg/mL in [12]; more than 50 µg/mL in [13]; more than 50 µg/mL in experiment [14]; more than 50 µg/mL in experiment [17]. The values for the IC50, pseudovirus neutralization in [2], in experiment [8] and in experiment [9] were 0.01 µg/mL, 0.211 µg/mL and 0.062 µg/mL, respectively. The substance also showed a neutralization IC50 in experiment [3] of 0.067 µg/mL. Besides, in experiment [15], the IC50, single-round pseudovirus neutralization is more than 50 µg/mL. In [16], this substance yielded a Fold IC50 increase relative to wild-type of 0.9 fold.
